This data set addresses human plasmin (UniProt P00747).

human plasmin, sequence (P00747 97-810): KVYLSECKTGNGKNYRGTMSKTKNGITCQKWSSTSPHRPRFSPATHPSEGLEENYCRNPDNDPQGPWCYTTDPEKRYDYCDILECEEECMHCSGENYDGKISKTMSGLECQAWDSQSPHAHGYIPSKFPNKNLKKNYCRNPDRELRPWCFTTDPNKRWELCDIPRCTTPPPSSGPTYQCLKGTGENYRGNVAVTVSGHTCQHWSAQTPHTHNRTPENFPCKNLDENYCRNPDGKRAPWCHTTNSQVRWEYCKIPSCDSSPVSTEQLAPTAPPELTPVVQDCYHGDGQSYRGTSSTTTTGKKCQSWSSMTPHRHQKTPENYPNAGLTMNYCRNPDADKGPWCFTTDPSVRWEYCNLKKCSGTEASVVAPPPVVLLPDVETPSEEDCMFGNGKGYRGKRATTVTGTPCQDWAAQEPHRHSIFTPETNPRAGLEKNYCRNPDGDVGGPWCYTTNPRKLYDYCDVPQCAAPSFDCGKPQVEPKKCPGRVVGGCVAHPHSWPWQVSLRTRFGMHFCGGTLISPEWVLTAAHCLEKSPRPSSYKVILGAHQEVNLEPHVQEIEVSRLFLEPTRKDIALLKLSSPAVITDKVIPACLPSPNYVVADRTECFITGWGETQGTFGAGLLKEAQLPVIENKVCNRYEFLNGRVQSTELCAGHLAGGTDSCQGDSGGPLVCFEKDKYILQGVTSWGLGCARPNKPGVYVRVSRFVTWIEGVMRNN

On to “clot specific streptokinase (CSSK), FBD(4,5)-SK-FBD(4,5), expressed in E. coli”, for which the “lag in plasminogen activation activity with added plasmin” value was “there was a progressive decrease in the lag in activity in the presence of increasing amounts of plasmin added to the reaction”. To “clot specific streptokinase (CSSK), FBD(4,5)-SK-FBD(4,5), expressed in Pichia pastoris (pPIC9K-alpha modified CSSK/GS115), glycosylated” belongs “there was a progressive decrease in the lag in activity in the presence of increasing amounts of plasmin added to the reaction”.

Values taken from patent US20180362596.
